Laboratory results as given in PMC6587469.
Values joined by “and” are separate entries in the source; they are usually repeats but may differ in a detail not shown here. Equal entries are not always repeated.

Legend:
[1] = target: MabSelect SuRe protein A ligand: tetrameric chain of Z-domains (recombinant form of the B domain of (Staphylococcus aureus)); assay: SAXS
[2] = target: MabSelect SuRe protein A ligand: tetrameric chain of Z-domains (recombinant form of the B domain of (Staphylococcus aureus)); assay: batch adsorption isotherm

In the case of Trastuzumab (antibody), the stoichiometry N (antibody : protein A chain) [1] is reported as 1 and 2 and the stoichiometry N (antibody molecules per ligand) [2] is reported as 2.
